From publication PMC4021855 (Nature chemical biology, 2013)
Ends that are not written are not given here.

Experiments:
[1] = target: human full-length KRS T52D, His-tagged (human, UniProt Q15046 1-597, T52D); assay: AlphaScreen or HTRF
[2] = target: human full-length KRS WT, His-tagged (human, UniProt Q15046 1-597); assay: AlphaScreen or HTRF
Sequence of human full-length KRS WT, His-tagged (Q15046 whole entry): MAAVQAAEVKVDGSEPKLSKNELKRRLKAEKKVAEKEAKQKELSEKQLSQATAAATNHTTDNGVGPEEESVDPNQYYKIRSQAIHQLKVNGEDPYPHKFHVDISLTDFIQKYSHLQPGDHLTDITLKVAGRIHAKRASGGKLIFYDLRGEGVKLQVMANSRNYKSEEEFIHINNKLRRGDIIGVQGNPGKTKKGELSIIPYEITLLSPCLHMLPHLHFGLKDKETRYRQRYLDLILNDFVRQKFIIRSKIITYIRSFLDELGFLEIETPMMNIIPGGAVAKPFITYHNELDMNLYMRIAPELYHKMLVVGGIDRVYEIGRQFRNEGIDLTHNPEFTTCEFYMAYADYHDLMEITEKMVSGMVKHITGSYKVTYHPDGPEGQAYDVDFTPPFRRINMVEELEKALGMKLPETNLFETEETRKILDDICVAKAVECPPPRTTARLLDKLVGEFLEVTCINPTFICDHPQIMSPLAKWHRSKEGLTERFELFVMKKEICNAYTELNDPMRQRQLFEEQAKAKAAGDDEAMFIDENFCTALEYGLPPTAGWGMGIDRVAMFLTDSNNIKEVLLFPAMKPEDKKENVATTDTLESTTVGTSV

Sequence of human full-length KRS T52D, His-tagged (Q15046 whole entry T52D): as the sequence (Q15046 whole entry) above, with T52D counted along it

- Kd [1]: 333 nM
- binding result [2]: binds
Binder: MPMYQVKPYHGGGAPLRVELPTCMYRLPNVHGRSYGPAPGAGHVQEES-{TRX} (domain or fragment, human, UniProt Q13155 1-48, looked up, also: biotin via EZ-Link-NHS-PEG12-Biotin, places not given here) [AIMP2_(1–48)-TRX-Biotin]
